Source: patent publication US5786191A, “Cloning and expression of complementary DNAs for multiple members of the human cytochrome P450 2C subfamily” (priority 1994, dated 1998)

B1: 2C8: recombinant human P450 2C8 (clones 7b and 7c, Thr^130 Ile^264 variant) expressed in yeast (protein, UniProt P10632 1-490, looked up)
Cytochrome P450 2C8: MEPFVVLVLCLSFMLLFSLWRQSCRRRKLPPGPTPLPIIGNMLQIDVKDICKSFTNFSKVYGPVFTVYFGMNPIVVFHGYEAVKEALIDNGEEFSGRGNSPISQRITKGLGIISSNGKRWKEIRRFSLTTLRNFGMGKRSIEDRVQEEAHCLVEELRKTKASPCDPTFILGCAPCNVICSVVFQKRFDYKDQNFLTLMKRFNENFRILNSPWIQVCNNFPLLIDCFPGTHNKVLKNVALTRSYIREKVKEHQASLDVNNPRDFIDCFLIKMEQEKDNQKSEFNIENLVGTVADLFVAGTETTSTTLRYGLLLLLKHPEVTAKVQEEIDHVIGRHRSPCMQDRSHMPYTDAVVHEIQRYSDLVPTGVPHAVTTDTKFRNYLIPKGTTIMALLTSVLHDDKEFPNPNIFDPGHFLDKNGNFKKSDYFMPFSAGKRICAGEGLARMELFLFLTTILQNFNLKSVDDLKNLNTTAVTKGIVSLPPSYQICFIPV
B2: 2C9-Ile^359 (65): recombinant human P450 2C9 allelic variant, clone 65 (protein, UniProt P11712 1-490, looked up)
Cytochrome P450 2C9: MDSLVVLVLCLSCLLLLSLWRQSSGRGKLPPGPTPLPVIGNILQIGIKDISKSLTNLSKVYGPVFTLYFGLKPIVVLHGYEAVKEALIDLGEEFSGRGIFPLAERANRGFGIVFSNGKKWKEIRRFSLMTLRNFGMGKRSIEDRVQEEARCLVEELRKTKASPCDPTFILGCAPCNVICSIIFHKRFDYKDQQFLNLMEKLNENIKILSSPWIQICNNFSPIIDYFPGTHNKLLKNVAFMKSYILEKVKEHQESMDMNNPQDFIDCFLMKMEKEKHNQPSEFTIESLENTAVDLFGAGTETTSTTLRYALLLLLKHPEVTAKVQEEIERVIGRNRSPCMQDRSHMPYTDAVVHEVQRYIDLLPTSLPHAVTCDIKFRNYLIPKGTTILISLTSVLHDNKEFPNPEMFDPHHFLDEGGNFKKSKYFMPFSAGKRICVGEALAGMELFLFLTSILQNFNLKSLVDPKNLDTTPVVNGFASVPPFYQLCFIPV

Legend:
Type in all cases: biochemical
[1] = Tolbutamide hydroxylase assay, purified reconstituted P450s; conditions: blank (22 ± 5) subtracted, means ± SE
Description: Tolbutamide hydroxylase activity was measured according to Knodell et al., J. Pharmacol. Exper. Ther. 241:1112-1119 (1987), with several modifications. Yeast microsomes (1 mg protein) were preincubated with 300 pmol hamster P450 reductase in 0.2 ml of the incubation buffer (below) for 3 min at 37° C. The reaction was then placed on ice and incubated in 0.2 ml of 50 mM HEPES buffer (pH 7.4) containing 1.5 mM MgCl2, 0.1 mM EDTA in a final volume of 1 ml and 1 mM sodium tolbutamide. The reaction was initiated with 0.5 mM NADPH. Human liver microsomes (0.22 mg protein) were incubated without reductase. Incubations with reconstituted recombinant P450s contained 50 pmol purified P450 enzyme, 150 pmol P450 reductase, and 15 μg dilauroylphosphatidylcholine, and were performed in 100 mM potassium phosphate buffer (pH 7.4). Reactions were terminated after 60 min at 37° C. by the addition of 50 μl of 4N HCl, followed by extraction with 3 ml of water-saturated ethyl acetate. The ethyl acetate extracts were dried under nitrogen at 40° C., the residue resolubilized in 200 μl methanol, and 4-hydroxytolbutamide then assayed using HPLC by injecting 50 μl of the solubilized extract onto a μBONDAPAK C18 column (4.6×300 mm) using 0.05% phosphoric acid, pH 2.6: acetonitrile (6:4, v/v) as the mobile phase with a flow rate of 1 ml/min. The column eluate was monitored at 230 nm and rates of product formation were determined from standard curves prepared by adding varying amounts of 4-hydroxytolbutamide to incubations conducted without NADPH. […] Samples were analyzed in triplicate.

[2] = Mephenytoin 4'-hydroxylase assay, recombinant human CYP2C yeast microsomes, R-enantiomer; conditions: yeast microsomes + P450 reductase, phospholipid, cytochrome b5 2:1; 0.4 mM substrate; 37° C., 30 min; liver microsomes unfortified, phosphate buffer; means ± SE
Description: (§1) Purified or recombinant yeast microsomes (10-50 pmol) were preincubated with dilauroylphosphatidylcholine (15 μg per 50 pmol P450), P450 reductase (500 U per 50 mol P450), and human cytochrome b5 (2:1 molar ratio when added). The reconstituted mixture was preincubated for 5 min at 37° C., and then placed on ice. […] The mixture was then incubated at 37° with shaking for 3 min, and the reaction started with the addition of 2 mM NADPH and terminated after 30 min with an equal volume of methanol. […] Reaction volumes were generally 0.25 ml except when the volume of recombinant purified cytochrome or yeast microsomes was greater than 50 μl. In these cases, the volume was increased to 0.5 ml to limit the volume of glycerol from the purified preparation to <4% of the final volume.
(§2) At the end of the incubation period, the reactions were terminated with an equal volume of methanol. The incubation mixture was centrifuged at 10,000 g for 10 min and an aliquot assayed directly using HPLC without extraction. Samples with particularly low activity were concentrated by lyophilization and redissolved in a small volume of methanol:water (1:1) before assay. The HPLC system consisted of a reverse phase C18 (10 μm) Versapak, 300 mm×4.1 mm column (Altech Associates, Deerfield, Ill.) using an isocratic solvent consisting of methanol:water (45:55) with a flow rate was kept of 1 ml/min for 25 min.

[3] = Mephenytoin 4'-hydroxylase assay, purified recombinant P450s in reconstituted system, R-enantiomer; conditions: triplicate, means ± SE, blank not subtracted
Description: as §1, §2

[4] = Tolbutamide hydroxylase assay, recombinant human CYP2C yeast microsomes; conditions: for Tolbutamide Hydroxylase Activity per mg protein: 1 mg yeast microsomal protein + P450 reductase, or 0.2 mg liver microsomal protein without reductase; for Tolbutamide Hydroxylase Activity per mg protein / Tolbutamide Hydroxylase Activity per nmol P450: means ± SE; for Tolbutamide Hydroxylase Activity per nmol P450: adjusted for P450 content
Description: Yeast microsomes (1 mg protein) were preincubated with 300 pmol hamster P450 reductase in 0.2 ml of the incubation buffer (below) for 3 min at 37° C. The reaction was then placed on ice and incubated in 0.2 ml of 50 mM HEPES buffer (pH 7.4) containing 1.5 mM MgCl2, 0.1 mM EDTA in a final volume of 1 ml and 1 mM sodium tolbutamide. The reaction was initiated with 0.5 mM NADPH. Human liver microsomes (0.22 mg protein) were incubated without reductase. Incubations with reconstituted recombinant P450s contained 50 pmol purified P450 enzyme, 150 pmol P450 reductase, and 15 μg dilauroylphosphatidylcholine, and were performed in 100 mM potassium phosphate buffer (pH 7.4). Reactions were terminated after 60 min at 37° C. by the addition of 50 μl of 4N HCl, followed by extraction with 3 ml of water-saturated ethyl acetate. […] The column eluate was monitored at 230 nm and rates of product formation were determined from standard curves prepared by adding varying amounts of 4-hydroxytolbutamide to incubations conducted without NADPH. […] Samples were analyzed in triplicate.

[5] = Mephenytoin 4'-hydroxylase assay, purified recombinant P450s in reconstituted system, S-enantiomer; conditions: for R/S Ratio of mephenytoin 4'-hydroxylase activity: purified P450s (Table IV); for Mephenytoin 4'-Hydroxylase Activity, S: purified P450s, reconstituted system, triplicate, means ± SE, blank not subtracted
Description: as §1, §2

[6] = Mephenytoin 4'-hydroxylase assay, recombinant human CYP2C yeast microsomes, S-enantiomer; conditions: for R/S Ratio of mephenytoin 4'-hydroxylase activity: recombinant yeast microsomes (Table III); for Mephenytoin 4'-Hydroxylase Activity, S: yeast microsomes + P450 reductase, phospholipid, cytochrome b5 2:1, 0.4 mM substrate, 37° C., 30 min, liver microsomes unfortified, phosphate buffer, means ± SE
Description: as §1, §2

Row | Molecule | Tolbutamide Hydroxylase Activity [1] | Mephenytoin 4'-Hydroxylase Activity, R [2] | Mephenytoin 4'-Hydroxylase Activity, R [3] | Tolbutamide Hydroxylase Activity per mg protein [4] | Tolbutamide Hydroxylase Activity per nmol P450 [4] | R/S Ratio of mephenytoin 4'-hydroxylase activity [5] | Mephenytoin 4'-Hydroxylase Activity, S [5] | R/S Ratio of mephenytoin 4'-hydroxylase activity [6] | Mephenytoin 4'-Hydroxylase Activity, S [6] | Tolbutamide turnover number of Ile^359 allele relative to Leu^359 allele of 2C9 ([4]; recombinant microsomes adjusted for P450 content)
1 | B1 | 12 ± 4 pmol/min/nmol P450 | 0.016 ± 0.001 nmol/min/nmol P450 | 0.023 ± 0.004 nmol/min/nmol P450 | 8.5 ± 0.2 nmol/min/mg protein | 0.11 ± 0.003 nmol/min/nmol P450 | 0.4 | 0.057 ± 0.009 nmol/min/nmol P450 | 0.4 | 0.037 ± 0.001 nmol/min/nmol P450 | 
2 | B2 | 122 + 29 pmol/min/nmol P450 | 0.041 ± 0.005 nmol/min/nmol P450 | 0.063 ± 0.003 nmol/min/nmol P450 | 169.8 ± 7.4 nmol/min/mg protein | 3.4 ± 0.15 nmol/min/nmol P450 | 0.77 | 0.081 ± 0.006 nmol/min/nmol P450 | 0.9 | 0.043 ± 0.000 nmol/min/nmol P450 | 3 fold
